From the DeepSol protein solubility set

Assay: soluble on expression in E. coli; label from the status in PepcDB or PDB records

Sequence | soluble on expression in E. coli
MGSDKIHHHHHHMIVNQANLQGIYKSFNTIFNQAFDAAPSQWPLVAMQVPSTGRSVDYKWLGDFPMMREWLGDRVLKDLSAFKYEITNKDYESTIEVDRNDIDDDQIGVYTPMIQGLAQAAKVHPDILVFALLKAGFDTGCFDGQYFFDSDHSVNGASVSNTGGGDGTPWYLLDLSRPIKPIVLQIRKRPQFVAMDKPDDENVFMRKKFRYGVDDRKNVGYGLWQLAYGSKQTLDATNYAAARAAMMAFTNDEGVPLGITPTHLVVPPTLESNGRTVVEAQFDANGASNVWYNTAKLVVVPWLA | not soluble
MTERLEFTESAFEILGRKWNGLIIQSLLDSDRGSLHFAELSRSVHACSDRVLTVRLKELEDAGIIKRVCCPDNGKLGYRLTEKGSSMRPLMSEISRWAAENI | not soluble
MAAKDRIQAIKQMVANDKKVTVSNLSGIFQVTEETIRRDLEKLEDEGFLTRTYGGAVLNTAVLTENIHFYKRASSFYEEKLLIARKALPFIDNKTTMAADSSSTVMELLKLLQDRSDLTLLTNSAEAIHVLAQSEIKVVSTGGELNKNTLSLQGRITKEIISRYHVDIMVMSCKGLDINSGALDSNEAEAEIKKTMIRQATEVALLVDHSKFDRKAFVQLADFSHINYIITDKSPGAEWIAFCKDNNIQLVWLEHHHHHH | soluble
MQDFDFSFNPKACEGCGAKCCVGESGYIFLNIQEMQQISAFLKLELEEFSQKYVKKVGYKFSLLEKDAKELGLACVFLDLETKKCQIYSVRPKQCQTFPFWEGVKTFSKEQKEAFCQSCPGITQKTKETKVRLEHHHHHH | not soluble
PFMFRPRKQVFQTQGAAVSSMAQTLLPNDLASKAMGSAFTALLDANEDAQKAMKIIKTLSSLSDAWENVKETLNNPEFWKQLLSRCVQLIAGMTIAVMHPDPLTLLCLGTLTAAEITSQTSLCEEIAAKFKTIFITPPPRFPTISLFQQQSPLKQVNDIFSLAKNLDWAVKTVEKVVDWFGTWIVQEEKEQTLDQLLQRFPEHAKRISDLRNGMAAYVECKESFDFFEKLYNQAVKEKRTGIAAVCEKFRQKHDHATARCEPVVIVLRGDAGQGKSLSSQVIAQAVSKTIFGRQSVYSLPPDSDFFDGYENQFAAIMDDLGQNPDGSDFTTFCQMVSTTNFLPNMASLERKGTPFTSQLVVATTNLPEFRPVTIAHYPAVERRITFDYSVSAGPVCSKTEAGYKVLDVERAFRPTGEAPLPCFQNNCLFLEKAGLQFRDNRTKEIISLVDVIERAVARIERKKKVLTTVQTLVAQ | not soluble
MGSDKIHHHHHHMMSDASLPALTLPPALRRVLPAARWERVTEGESGAGVWRSTRFVVKVQSRTLYPASTLLQERERLRWFAGRLPVPQVVAYEDDGEQEYLAMTRLPGIAMSHPDAALHPERMVNLLARALRELHALPVRDCPFNMSLGVRLKLARERVAAGVVDESDFDEERQGQSAVQVFNQLARTRPAEEDLVVTHGDACLPNVIVQGEYVEGLIDLGRAGIADRHMDLALAWRSTRRNLGATYAGMLLDLYGRELVDEGKLAYYQLLDELF | not soluble
VSIAQAQVVVSSKIDTEGGVLGNIILAVLNQNKIETTDRIQLGATPVVRKAITAGEIDIYPEYTGNAAFFFSKADDPLWKDAAKGYEEAKTLDYDANKIVWLAPSPANNTWAIALRKDVADKNNLKTLSDFGKYVAGGGTVVLAASSEFVNSAAALPAFQTTYGFTMKPDQLITLSGGDTAATIAAAANQTNNANAAMVYGTDGGIAPSGLVVLEDDKHVQPVYQPAPIIREEVLKKHPNIEELLKPVFEKLDLATLQDLNARVQVGGEQAKTVAMDFLTKNGFAK | soluble
MQEVPPDFEDVHIAEARVDVPSTWRDQIVNTNAVATETHPLKCAEVETQTGSKDNQGTQTDDAGGGRPPSPSKVQASGVADFMAKVEGMVAGELVKATEEHEVLEPFTRAADDEQEPATCIHYLSPFQQDAAANQDLNAT | soluble
MGSDKIHHHHHHMKRTVTVKLQPSKAQEETLKELAIISSKAWNKVNYLRRQEFFEGKPVDFLKTEKIVYEEFKSEIGSATVQQICRKNADAWRSFFSLIRSKRNGELPKWFKPKPPEYVKEGGLIILRNDQYKIEGNKLILKGLGKFKRLEVQFKGRIHLKGKQGKLEITYDPIKRKWYAHISYTVKEKLYGGEWVEVPRQPLGNLSAGIDLGVNNLMAVYVENGESFLVNGRPLKSIDFYWRERIADYQSKLNKSGAKKSRKLSRMHEKAKLQAKHYINTAVRQTVERLYHLGVSRIVVGYPKGISRNSNRGKKQNYLLSHVWRFNYVIKRLREVAEEYGIQVLIVDEAFTSKLCPVCGKPHKGQGLFEDYLSVPRRGLPLMPTWLELSTF | not soluble
MAHHHHHHMVLLPFPPSFYVTTGTTIPFISSPPVAQSGNIYASNESKRLRVDNFFMGFQYSFVADGKLGRGFVFESIEPITTTTASGNNNNNNNNNNNNNNSSEKKSGRGGEERISCRSFALNRGLTGFGVPDEFVRHAESSLVRGVKVWRYTGYSRSGVGPLQEVDYFIRNGTFHAVPWRVQIRRRQTALKELTGSPMTLPNWRYFGGLFFDEVAVPEGPYEDKLERLMQDTTVTLDFYNFVPAEPHPSVFSVPDNCKEVSARFTGNDVDISLAQRFLVDLSLYTPVGREMLREELNSA | not soluble
MYRSEVSKPQLENPNLVDRIIVIILPNYFYEYESVLKHITKENFGIIEKTVKHFKTEEVMEWKSADLESQDIWNLSDRLIDGPCMLLLCQRANAFIEMKEVAKYHNVIAKRMSSSDGIYYSKTTIAAYHDIIFFFPKYIDERAMLKHAKDYLSVEVWPKLSQGLARVAVERPDNPIKWLADYLHQLRQ | not soluble
EIRDTKKDLKESEMRLSLALDASNMAAWHIDMDTRHIAYSDTLAVIFGYPKDTTLVWSDLVAQIYPEDMHLYQTARQQMETTGLYEYEIRIVWPDNSIKWIKTIGKMLLDSDGSQRRMIGITRDIT | not soluble
MKFDRHRRLRSSATMRDMVRENHVRKEDLIYPIFVVEKDDVKKEIKSLPGVYQISLNLLESELKEAYDLGIRAIMFFGVPNSKDDIGTGAYIHDGVIQQATRIAKKMYDDLLIVADTCLCEYTDHGHCGVIDDHTHDVDNDKSLPLLVKTAISQVEAGADIIAPSNMMDGFVAEIRRGLDEAGYYNIPIMSYGVKYASSFFGPFRDAADSAPSFGDRKTYQMDPANRLEALRELESDLKEGCDMMIVKPALSYLDIVRDVKNHTNVPVVAYNVSGEYSMTKAAAQNGWIDEERVVMEQMVSMKRAGADMIITYFAKDICRYLDK | not soluble
MSSSNKESASDLIRAKDAGLLDIWALPSFDPHVEPEPEPEPEPVDEPAEMEEVPLDEVQPLTLEELESIRQEAWNEGFATGEKEGFHSTQLKVRQEAEVVLAAKVASLEQLMGHLLAPIAEQDTQIEKAVIHLVEHIARQVIQRELVTDSGQIASVLRDALKLLPMGAQNLRIFINPQDFLLVKAMRERHEEAWKIVEDEDLLPGGCRIETEHSRIDASVETRIALAISKMHDQLHEQVTHPAAADLSVDLDASPVSTAKTEDSDVDALDAP | not soluble
MSICTRKFINKLGFPNFGGESVQIAISGGKGWNWKIYSRHKSCSKMGVKRTLADLDVEAPNDHLLLGVSLANEEPVYQFMPHFDYLKCIKRRKCAKVCEEHAIVTLKDGTPFLMPTLCSGCRACEIVCPVPGAIREMAGDPLEHHHHHH | not soluble
MTEWTGEERYQRIEDVDTEYFKTLKQQVDQSKFRQQFHIQPETGLLNDPNGLIFYKGKYYVSHQWFPLGAVHGLKYWYNYTSDDLINFKAEGPILNPDTKYDSHGVYSGSAFEYNGHLYYMYTGNHRDNHWQRHASQMIARLKEDGSVEKFPKPVISQQPEGYTSHFRDPKVFKYDEKYYAIIGAQNNDQQGRLLLYNTEDIINWHYLGEINTELDDFGYMWECPDYFNVDNQDVILICPQGIEPKGDQFKNIYQSGYILGKFDIEKLTYEHENFVELDNGFDFYAPQTFLDEKGRRVLIGWMGLPEIEYPTDNEGWAHCLTTPRVLNVENGQLKQRPYPALEKLRHNKETALGYANKFTRKLHPYEGKQYELIIDILDNDATEVYFELRTSKTSSTLIAYNKRENKITLDRSDSGLLPTNVEGTTRSTILDTPLKQLQIFVDTSSIEIFCNDGERVLTSRIFPTEDALGIKTSTESGQVYLQFTKYDLKDEHK | not soluble
